Earlier results in PMC4741374.

Assays:
G-CSFR (Homo sapiens) = G-CSFR (Homo sapiens) (UniProt Q99062)
GM-CSFR (Homo sapiens) = GM-CSFR (Homo sapiens) (UniProt P15509)
Chain of UniProt P15509 (P15509 23-320, chain 1 of 2): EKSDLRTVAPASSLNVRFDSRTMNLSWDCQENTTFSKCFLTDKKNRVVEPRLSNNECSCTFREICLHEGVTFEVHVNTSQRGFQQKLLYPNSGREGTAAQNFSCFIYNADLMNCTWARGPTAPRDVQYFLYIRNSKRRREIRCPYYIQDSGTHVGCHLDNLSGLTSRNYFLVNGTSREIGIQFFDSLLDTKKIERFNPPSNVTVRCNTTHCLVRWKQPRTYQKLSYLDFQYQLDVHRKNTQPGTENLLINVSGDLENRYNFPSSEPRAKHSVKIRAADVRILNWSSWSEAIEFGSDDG
Chain of UniProt P15509 (P32927 17-443, chain 2 of 2, further chain): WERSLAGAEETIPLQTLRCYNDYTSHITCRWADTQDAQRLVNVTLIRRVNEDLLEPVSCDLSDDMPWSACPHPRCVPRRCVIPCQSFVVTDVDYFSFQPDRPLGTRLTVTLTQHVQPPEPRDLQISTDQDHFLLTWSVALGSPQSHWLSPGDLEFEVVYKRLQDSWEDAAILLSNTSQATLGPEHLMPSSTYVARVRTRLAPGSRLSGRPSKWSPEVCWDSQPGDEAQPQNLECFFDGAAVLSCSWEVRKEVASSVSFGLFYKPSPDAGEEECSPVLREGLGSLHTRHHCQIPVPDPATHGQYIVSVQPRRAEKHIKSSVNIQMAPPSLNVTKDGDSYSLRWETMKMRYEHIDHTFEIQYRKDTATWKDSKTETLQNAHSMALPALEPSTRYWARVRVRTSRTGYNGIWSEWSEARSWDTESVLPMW

Chain of UniProt Q99062 (Q99062 25-627): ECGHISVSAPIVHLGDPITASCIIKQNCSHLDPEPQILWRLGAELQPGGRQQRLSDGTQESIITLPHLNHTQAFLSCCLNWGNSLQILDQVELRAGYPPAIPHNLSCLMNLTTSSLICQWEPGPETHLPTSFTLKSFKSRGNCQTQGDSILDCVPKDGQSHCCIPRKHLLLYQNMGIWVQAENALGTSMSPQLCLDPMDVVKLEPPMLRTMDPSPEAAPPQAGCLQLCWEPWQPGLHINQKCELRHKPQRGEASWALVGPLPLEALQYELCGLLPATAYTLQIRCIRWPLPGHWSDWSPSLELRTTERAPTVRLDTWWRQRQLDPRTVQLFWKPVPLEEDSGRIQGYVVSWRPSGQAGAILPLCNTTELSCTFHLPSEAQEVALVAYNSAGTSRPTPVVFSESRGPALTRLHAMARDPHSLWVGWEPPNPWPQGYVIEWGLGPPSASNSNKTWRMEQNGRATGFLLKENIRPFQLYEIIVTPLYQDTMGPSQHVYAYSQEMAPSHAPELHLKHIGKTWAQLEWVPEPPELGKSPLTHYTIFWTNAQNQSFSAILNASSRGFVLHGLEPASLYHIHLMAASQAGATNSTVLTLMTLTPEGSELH

| Kd (G-CSFR (Homo sapiens)) [nM] | Kd (GM-CSFR (Homo sapiens)) [nM] | Substance |
| --- | --- | --- |
| 0.5 |  | G-CSF (from UniProt P09919) |
|  | 0.1 | GM-CSF (from UniProt P04141) |
